This note sets out measurements from patent US20010014328A1.

The experiment deals with human FcαRI (IgA Fc receptor, CD89) on effector cells (human) (UniProt P24071). Briefly: cell-based or functional assay.

Some results are limits rather than exact numbers.

Consider “A77X520C9 anti-FcαRXanti-HER2/neu bispecific antibody”, for which the BsAb-dependent lysis of SKBR-3 cells by purified PMN, 1.0 µg/ml BsAb (FIG. 10) was under 37%; the cytolysis of SKBR-3 breast tumor cells by effector cells in whole blood, 0.1 µg/ml BsAb (FIG. 8) was in the range of 15 to 20%; the cytolysis of SKBR-3 breast tumor cells by effector cells in whole blood, 1.0 µg/ml BsAb (FIG. 8) was in the range of 25 to 30%; the cytotoxicity of SKBR-3 cells by neutrophil effector cells (51Cr release), 0.1 µg/ml BsAb (FIG. 7) was in the range of 6 to 9%. The substance also registered a cytotoxicity of SKBR-3 cells by neutrophil effector cells (51Cr release), 1.0 µg/ml BsAb (FIG. 7) of 20 to 30%; a cytotoxicity of SKBR-3 cells by neutrophils pre-incubated with G-CSF and IFN-γ, 0.1 µg/ml BsAb (FIG. 22) of over 10%; a percent effector cells (monocytes or neutrophils) engaged in phagocytosis of SKBR-3 cells (FIG. 18) of 65 to 75%; a phagocytosis of SKBR-3 cells by monocyte-derived macrophages, 0.1 µg/ml BsAb (FIG. 19, panel 5; about 45% without BsAb) of over 95%.

Substance “A77XH425 bispecific antibody (anti-FcαRI x anti-EGF-R)” yielded a BsAb-dependent lysis of A431 cells by purified monocytes (FIG. 14) of under 55%; a BsAb-dependent lysis of A431 cells with whole blood as source of effector cells (FIG. 15) of under 43%; a cytolysis of tumor cells by TNF-treated monocytes, 1.0 µg/ml BsAb (FIG. 23) of over 60%; a cytolysis of tumor cells by untreated monocytes, 1.0 µg/ml BsAb (FIG. 23) of over 60%.
